How the values were obtained:
[1] = molecular target: NS3-4A protease Q80K-A91S-S174N, single-chain proteolytic domain (NS4A21-32-GSGS-NS3 3-181) (hepatitis C virus)
[2] = molecular target: NS3-4A protease Q80K-A91T-S174N, single-chain proteolytic domain (NS4A21-32-GSGS-NS3 3-181) (hepatitis C virus)
[3] = molecular target: NS3-4A protease Q80K-A91S, single-chain proteolytic domain (NS4A21-32-GSGS-NS3 3-181) (hepatitis C virus)
[4] = molecular target: NS3-4A protease Q80K-S174N, single-chain proteolytic domain (NS4A21-32-GSGS-NS3 3-181) (hepatitis C virus)
[5] = molecular target: NS3-4A protease Q80K-A91T, single-chain proteolytic domain (NS4A21-32-GSGS-NS3 3-181) (hepatitis C virus)
[6] = molecular target: NS3-4A protease WT, single-chain proteolytic domain (NS4A21-32-GSGS-NS3 3-181) (hepatitis C virus)
[7] = molecular target: NS3-4A protease Q80K, single-chain proteolytic domain (NS4A21-32-GSGS-NS3 3-181) (hepatitis C virus)

In the case of “viral polyprotein substrate derived from the NS4A/4B cleavage site (SensoLyte 520 HCV; Anaspec) (peptide)”, the KM (μM) of cleavage of the NS4A/4B FRET peptide substrate by purified protease (FRET-based protease assay) [1] is reported as 8.16 µM, the KM (μM) of cleavage of the NS4A/4B FRET peptide substrate by purified protease (FRET-based protease assay) [2] is reported as 0.67 µM and the KM (μM) of cleavage of the NS4A/4B FRET peptide substrate by purified protease (FRET-based protease assay) [3] is reported as 0.56 µM. The KM (μM) of cleavage of the NS4A/4B FRET peptide substrate by purified protease (FRET-based protease assay) [4] was 0.14 µM, the KM (μM) of cleavage of the NS4A/4B FRET peptide substrate by purified protease (FRET-based protease assay) [5] was 0.48 µM and the KM (μM) of cleavage of the NS4A/4B FRET peptide substrate by purified protease (FRET-based protease assay) [6] was 2.71 µM. For the same substance, the KM (μM) of cleavage of the NS4A/4B FRET peptide substrate by purified protease (FRET-based protease assay) [7] was 1.44 µM.
